According to US20080112961A1 (MacroGenics, published 2008):

T1: FcγRIIB-Fc fusion protein, soluble dimer: extracellular domain of FcγRIIB fused to the hinge-CH2-CH3 domain … (human, UniProt P31994 43-217, limits assumed)
T1 construct: extracellular domain; also called FcRIIB-Fc; 2bfcagl; not shown: human IgG2 hinge-CH2-CH3
T1 sequence (looked up): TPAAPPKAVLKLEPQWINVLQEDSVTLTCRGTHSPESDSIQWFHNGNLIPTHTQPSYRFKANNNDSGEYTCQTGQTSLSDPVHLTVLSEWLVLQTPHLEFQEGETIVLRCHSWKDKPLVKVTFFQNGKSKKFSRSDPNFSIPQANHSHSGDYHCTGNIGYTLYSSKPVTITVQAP

T2: FcγRIIB (form not stated) (UniProt P31994 43-217, limits assumed)
T2 construct: also called FcγRIIB (ELISA)
T2 sequence (looked up): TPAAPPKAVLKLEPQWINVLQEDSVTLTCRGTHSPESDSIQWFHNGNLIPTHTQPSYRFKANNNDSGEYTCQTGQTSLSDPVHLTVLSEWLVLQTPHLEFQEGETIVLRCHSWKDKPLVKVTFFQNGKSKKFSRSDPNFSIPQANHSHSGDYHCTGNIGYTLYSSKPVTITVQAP


Assays:
[1] = target: T1, FcγRIIB-Fc fusion protein, soluble …; assay: ELISA
[2] = target: T3, soluble monomeric FcγRIIIA, the extracellular region of FcγRIIIA joined to the linker-AVITAG sequence (UniProt P08637 17-208); assay: BIAcore, Ab on BSA-FITC
T3 construct: extracellular domain; also called FcRIIIA

[3] = target: T1, FcγRIIB-Fc fusion protein, soluble …; assay: BIAcore, Ab on BSA-FITC
Procedure: (§1) Following this, the unreacted active esters were “capped off” with an injection of 1M Et-NH2. Once a suitable surface was prepared, ch 4-4-20 antibodies carrying the Fc mutations were passed over the surface by one minute injections of a 20 μg/mL solution at a […] flow rate. […] Next, dilution series of the receptor (FcγRIIIA and FcγRIIB-Fc fusion protein) in HBS-P buffer (10 mM HEPES, 150 mM NaCl, 0.005% Surfactant P20, 3 mM EDTA, pH 7.4) were injected onto the surface at 100 μL/min Antibody regeneration between different receptor dilutions was carried out by single 5 second injections of 100 mM NaHCO₃ pH 9.4; 3M NaCl.
(§2) Binding curves for two different concentrations (200 nM and 800 nM for FcγRIIIA and 200 nM and 400 nM for FcγRIIB fusion protein) were aligned and responses adjusted to the same level of captured antibodies, and the reference curves were subtracted from the experimental curves. Association and dissociation phases were fitted separately. Dissociation rate constant was obtained for interval 32-34 sec of the dissociation phase; association phase fit was obtained by a 1:1 Langmuir model and base fit was selected on the basis Rₘₐₓ and chi² criteria.

[4] = target: T4, FcγRIIIA (form not stated) (UniProt P08637 17-208, limits assumed); assay: ELISA
T4 construct: also called FcγRIIIA (ELISA)

[5] = target: T2, FcγRIIB (form not stated); assay: ELISA
[6] = target: T4, FcγRIIIA (form not stated); assay: ELISA; remark: listed apart in the source
[7] = target: T2, FcγRIIB (form not stated); assay: ELISA; remark: listed apart in the source
[8] = target: T5, FcγRIIIA 158V, soluble monomer (extracellular region joined to linker-AVITAG) (UniProt P08637 17-208, limits assumed); assay: BIAcore, ch4-4-20
T5 construct: extracellular domain; also called 3aV158; 3A 158V
Procedure: as §1, §2
(§3) Secondary Screen of Mutants via BIAcore: Mutants that were selected in the above screens were then analyzed by BIAcore to determine the kinetic parameters for binding FcγRIIIA (158V) and FcγRIIB. The method used was similar to that disclosed in Section 7.1, supra.

[9] = target: T1, FcγRIIB-Fc fusion protein, soluble …; assay: BIAcore, ch4-4-20
Procedure: as §1, §2, §3

T4 sequence (P08637 17-208 F176V limits assumed, form in doubt): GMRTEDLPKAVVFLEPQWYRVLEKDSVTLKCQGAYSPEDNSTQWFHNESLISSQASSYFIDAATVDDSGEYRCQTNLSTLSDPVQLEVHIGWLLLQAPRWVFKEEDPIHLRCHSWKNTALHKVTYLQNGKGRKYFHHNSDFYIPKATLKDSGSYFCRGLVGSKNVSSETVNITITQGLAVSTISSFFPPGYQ
T5 sequence (P08637 17-208 F176V limits assumed): as the sequence (P08637 17-208 F176V limits assumed, form in doubt) above

Row | Binder | ELISA, OD [1] [OD] | Kd [3] [nM] | koff [3] [s⁻¹] | ELISA binding, fold vs Wt [4] [X] | fold increase vs WT [6] [x] | Koff WT/Mut [8] [ratio] | Koff WT/Mut [9] [ratio] | also measured
1 | ch4-4-20 G316D, A378V, D399E (antibody) heavy: ASTKGPSVFPLAPSSKSTSGGTAALGCLVKDYFPEPVTVSWNSGALTSGVHTFPAVLQSSGLYSLSSVVTVPSSSLGTQTYICNVNHKPSNTKVDKKVEPKSCDKTHTCPPCPAPELLGGPSVFLFPPKPKDTLMISRTPEVTCVVVDVSHEDPEVKFNWYVDGVEVHNAKTKPREEQYNSTYRVVSVLTVLHQDWLNDKEYKCKVSNKALPAPIEKTISKAKGQPREPQVYTLPPSRDELTKNQVSLTCLVKGFYPSDIVVEWESNGQPENNYKTTPPVLESDGSFFLYSKLTVDKSRWQQGNVFSCSVMHEALHNHYTQKSLSLSPGK |  |  |  | 1.5 | 1.5 |  |  | ELISA binding, fold vs Wt [5]: 14 X; fold increase vs WT [7]: 14 x
2 | ch4-4-20 MgFc39 (E293V, Q295E, A327T) (antibody) heavy: ASTKGPSVFPLAPSSKSTSGGTAALGCLVKDYFPEPVTVSWNSGALTSGVHTFPAVLQSSGLYSLSSVVTVPSSSLGTQTYICNVNHKPSNTKVDKKVEPKSCDKTHTCPPCPAPELLGGPSVFLFPPKPKDTLMISRTPEVTCVVVDVSHEDPEVKFNWYVDGVEVHNAKTKPRVEEYNSTYRVVSVLTVLHQDWLNGKEYKCKVSNKTLPAPIEKTISKAKGQPREPQVYTLPPSRDELTKNQVSLTCLVKGFYPSDIAVEWESNGQPENNYKTTPPVLDSDGSFFLYSKLTVDKSRWQQGNVFSCSVMHEALHNHYTQKSLSLSPGK |  |  |  | 1.4 | 0.4 | 0.86 | 1.3 | 

Continued, in another order:

Row | ELISA, OD [1] [OD] | Kd [3] [nM] | koff [3] [s⁻¹] | ELISA binding, fold vs Wt [4] [X] | fold increase vs WT [6] [x] | Koff WT/Mut [8] [ratio] | Koff WT/Mut [9] [ratio] | Binder | also measured
3 | 0.1 | 108 | 0.107 |  |  |  |  | ch4-4-20 Mut23 (antibody) chain 1: not shown chain 2: DVVMTQTPLSLPVSLGDQASISCRSSQSLVHSNGNTYLRWYLQKPGQSPKVLIYKVSNRFSGVPDRFSGSGSGTDFTLKISRVEAEDLGVYFCSQSTHVPWTFGGGTKLEIKRTVAAPSVFIFPPSDEQLKSGTASVVCLLNNFYPREAKVQWKVDNALQSGNSQESVTEQDSKDSTYSLSSTLTLSKADYEKHKVYACEVTHQGLSSPVTKSFNRGEC | Kd [2]: 70.2 nM; koff [2]: 0.105 s⁻¹; kon [2]: 1.43e+06 M⁻¹ s⁻¹
4 | 1.2 | 41.3 | 0.05 |  |  |  |  | ch4-4-20 Mut 10 (P396L, A330S, K288N) (antibody, also called Mut10(0225); K288N, A330S, P396L) heavy: ASTKGPSVFPLAPSSKSTSGGTAALGCLVKDYFPEPVTVSWNSGALTSGVHTFPAVLQSSGLYSLSSVVTVPSSSLGTQTYICNVNHKPSNTKVDKKVEPKSCDKTHTCPPCPAPELLGGPSVFLFPPKPKDTLMISRTPEVTCVVVDVSHEDPEVKFNWYVDGVEVHNANTKPREEQYNSTYRVVSVLTVLHQDWLNGKEYKCKVSNKALPSPIEKTISKAKGQPREPQVYTLPPSRDELTKNQVSLTCLVKGFYPSDIAVEWESNGQPENNYKTTPLVLDSDGSFFLYSKLTVDKSRWQQGNVFSCSVMHEALHNHYTQKSLSLSPGK | 
5 |  |  |  |  |  | 1.23 | 2.29 | ch4-4-20 MgFc43 (Y319F, P352L, P396L) (antibody) heavy: ASTKGPSVFPLAPSSKSTSGGTAALGCLVKDYFPEPVTVSWNSGALTSGVHTFPAVLQSSGLYSLSSVVTVPSSSLGTQTYICNVNHKPSNTKVDKKVEPKSCDKTHTCPPCPAPELLGGPSVFLFPPKPKDTLMISRTPEVTCVVVDVSHEDPEVKFNWYVDGVEVHNAKTKPREEQYNSTYRVVSVLTVLHQDWLNGKEFKCKVSNKALPAPIEKTISKAKGQPREPQVYTLLPSRDELTKNQVSLTCLVKGFYPSDIAVEWESNGQPENNYKTTPLVLDSDGSFFLYSKLTVDKSRWQQGNVFSCSVMHEALHNHYTQKSLSLSPGK | 
